Laboratory results from patent publication US20230212587A1, “Mutant Hydroxyphenylpyruvate Dioxygenase Polypeptide, Encoding Gene Thereof and Use Therefor” (Beijing Dabeinong Biotechnology Co., Ltd., priority 2019, published 2023).
Residue numbers refer to the chain shown, from its start.

B1: F372G (protein, listed as Avena sativa)
chain: MPPTPATATGAAAAAVTPEHAARSFPRVVRVNPRSDRFPVLSFHHVELWCADAASAAGRFSFALGAPLAARSDLSTGNSAHASLLLRSGALAFLFTAPYAPPPQEAATAAATASIPSFSADAARTFAAAHGLAVRSVGVRVADAAEAFRVSVAGGARPAFAPADLGHGFGLAEVELYGDVVLRFVSYPDETDLPFLPGFERVSSPGAVDYGLTRFDHVVGNVPEMAPVIDYMKGFLGFHEFAEFTAEDVGTTESGLNSVVLANNSEAVLLPLNEPVHGTKRRSQIQTYLEYHGGPGVQHIALASNDVLRTLREMRARTPMGGFEFMAPPQAKYYEGVRRIAGDVLSEEQIKECQELGVLVDRDDQGVLLQIGTKPVGDRPTFFLEMIQRIGCMEKDEVGQEYQKGGCGGFGKGNFSELFKSIEDYEKSLEVKQSVVAQKS
modifications: AsHPPD Amido Acid Sequence
B2: F372V (protein, listed as Avena sativa)
chain: B1 chain with G372V
modifications: AsHPPD Amido Acid Sequence
B3: F372N (protein, listed as Avena sativa)
chain: B1 chain with G372N
modifications: AsHPPD Amido Acid Sequence
B4: F372I (protein, listed as Avena sativa)
chain: B1 chain with G372I
modifications: AsHPPD Amido Acid Sequence
B5: F372Q (protein, listed as Avena sativa)
chain: B1 chain with G372Q
modifications: AsHPPD Amido Acid Sequence

system: Arabidopsis thaliana T1 plants; assay: Topramezone tolerance of transgenic Arabidopsis thaliana T1 plants (pesticide damage grade by bleached leaf area, score, resistance evaluation); assay type: in vivo; design: score: scale not given here; settings: saturation mutation of HPPD from Avena sativa source (label F372X = AsHPPDm-F372X); topramezone 25, 50, 100 g ai/ha
From the text: The Arabidopsisthaliana T1 plants into which the AsHPPDm-F372A-02 nucleotide sequence was introduced, Arabidopsis thaliana T1 plants into which the AsHPPD-02 nucleotide sequence was introduced and wild-type Arabidopsisthaliana plants (18 days after sowing) were sprayed with topramezone at four different concentrations, i.e., 25 g ai/ha (one-fold field concentration, 1×), 50 g ai/ha (two-fold field concentration, 2×), 100 g ai/ha (four-fold field concentration, 4×) and 0 g ai/ha (water, 0×) to determine the tolerance of Arabidopsisthaliana to the herbicide. The degree of damage caused by the herbicide was measured for each plant according to the proportion of bleached leaf area (the proportion of bleached leaf area=bleached leaf area/total leaf area×100%) 7 days after spraying (7 DAT): the case where there is basically no bleached phenotype is defined as grade 0, the case where the proportion of bleached leaf area is less than 50% is defined as grade 1,the case where the proportion of bleached leaf area is more than 50% is defined as grade 2, and the case where the proportion of bleached leaf area is 100% grade is defined as grade 3.
(§1) According to the method as described above in point 6 of Example 1, the aforementioned Arabidopsisthaliana T1 plants and wild-type Arabidopsisthaliana plants (18 days after sowing) were sprayed with topramezone at three different concentrations respectively, i.e., 25 g ai/ha (one-fold field concentration, 1×), 100 g ai/ha (four-fold field concentration, 4×) and 0 g ai/ha(water, 0×) to detect the tolerance of Arabidopsisthaliana to the herbicide.
as §1, with “1x),” for “1×),”, “4x)” for “4×)”, “ai/ha (water, 0x)” for “ai/ha(water, 0×)”
According to the method as described above in point 6 of Example 1, the above-mentioned Arabidopsisthaliana T1 plants, Arabidopsisthaliana T1 plants into which the AsHPPD-02 nucleotide sequence was introduced, Arabidopsisthaliana T1 plants into which the PfHPPD-02 nucleotide sequence was introduced, and wild-type Arabidopsisthaliana plants (18 days after sowing) were sprayed with topramezone at four different concentrations respectively, that is, 25 g ai/ha (one-fold field concentration, 1x), 50 g ai/ha (two-fold field concentration, 2x), 100 g ai/ha (four-fold field concentration, 4x) and 0 g ai/ha (water, Ox) to detect the herbicide tolerance of Arabidopsisthaliana.
According to the method as described in point 6 of Example 1, the above-mentioned Arabidopsisthaliana T1 plants and wild-type Arabidopsisthaliana plants (18 days after sowing) were sprayed with topramezone at two different concentrations respectively, that is, 25 g ai/ha (one-fold field concentration, 1x) and 100 g ai/ha (four-fold field concentration, 4x) to detect the herbicide tolerance of Arabidopsisthaliana,. […]

Row | Molecule | tolerance to topramezone, in words
1 | B1 | better tolerance
2 | B2 | better tolerance
3 | B3 | better tolerance
4 | B4 | better tolerance
5 | B5 | better tolerance

same assay, conditions: topramezone 25 g ai/ha (1x); HPPD from Avena sativa source

Row | Molecule | Resistance Grade | score
6 | B1 | Highly resistant | 0
7 | B2 | Highly resistant | 0
8 | B3 | Highly resistant | 7
9 | B5 | Highly resistant | 0

same assay, conditions: topramezone 25 g ai/ha (1x); number of plants; HPPD from Avena sativa source

Row | Molecule | Grade 0 | Grade 1 | Grade 2 | Grade 3
10 | B1 | 20 | 0 | 0 | 0
11 | B2 | 20 | 0 | 0 | 0
12 | B3 | 18 | 0 | 2 | 0
13 | B5 | 20 | 0 | 0 | 0

same assay, conditions: topramezone 50 g ai/ha (2x); HPPD from Avena sativa source

Row | Molecule | Resistance Grade | score
14 | B1 | Highly resistant | 0
15 | B2 | Highly resistant | 0
16 | B3 | Highly resistant | 0
17 | B5 | Highly resistant | 0

same assay, conditions: topramezone 50 g ai/ha (2x); number of plants; HPPD from Avena sativa source

Row | Molecule | Grade 0 | Grade 1 | Grade 2 | Grade 3
18 | B1 | 20 | 0 | 0 | 0
19 | B2 | 20 | 0 | 0 | 0
20 | B3 | 20 | 0 | 0 | 0
21 | B5 | 20 | 0 | 0 | 0

same assay, conditions: topramezone 100 g ai/ha (4x); HPPD from Avena sativa source

Row | Molecule | Resistance Grade | score
22 | B1 | Highly resistant | 0
23 | B2 | Highly resistant | 0
24 | B3 | Highly resistant | 0
25 | B5 | Highly resistant | 0

same assay, conditions: topramezone 100 g ai/ha (4x); number of plants; HPPD from Avena sativa source

Row | Molecule | Grade 0 | Grade 1 | Grade 2 | Grade 3
26 | B1 | 20 | 0 | 0 | 0
27 | B2 | 20 | 0 | 0 | 0
28 | B3 | 20 | 0 | 0 | 0
29 | B5 | 20 | 0 | 0 | 0
